Reference: article PMC7447803, “DEPS-1 is required for piRNA-dependent silencing and PIWI condensate organisation in Caenorhabditis elegans” (Nature Communications, 2020)

T1: MBP-tagged full-length PRG-1 (C. elegans, UniProt P90786 1-824, Atto-594 label (in the cluster imaging only))
T1 construct: PRG-1, the PIWI protein of C. elegans, full length; Cloned into pMAL-C5X; Unlabelled in the MST titration; also called MBP-PRG-1; MBP-PRG; source: E. coli BL21 (DE3), purified (RNaseA-treated lysate, amylose resin, size-exclusion chromatography)
T1 sequence (looked up): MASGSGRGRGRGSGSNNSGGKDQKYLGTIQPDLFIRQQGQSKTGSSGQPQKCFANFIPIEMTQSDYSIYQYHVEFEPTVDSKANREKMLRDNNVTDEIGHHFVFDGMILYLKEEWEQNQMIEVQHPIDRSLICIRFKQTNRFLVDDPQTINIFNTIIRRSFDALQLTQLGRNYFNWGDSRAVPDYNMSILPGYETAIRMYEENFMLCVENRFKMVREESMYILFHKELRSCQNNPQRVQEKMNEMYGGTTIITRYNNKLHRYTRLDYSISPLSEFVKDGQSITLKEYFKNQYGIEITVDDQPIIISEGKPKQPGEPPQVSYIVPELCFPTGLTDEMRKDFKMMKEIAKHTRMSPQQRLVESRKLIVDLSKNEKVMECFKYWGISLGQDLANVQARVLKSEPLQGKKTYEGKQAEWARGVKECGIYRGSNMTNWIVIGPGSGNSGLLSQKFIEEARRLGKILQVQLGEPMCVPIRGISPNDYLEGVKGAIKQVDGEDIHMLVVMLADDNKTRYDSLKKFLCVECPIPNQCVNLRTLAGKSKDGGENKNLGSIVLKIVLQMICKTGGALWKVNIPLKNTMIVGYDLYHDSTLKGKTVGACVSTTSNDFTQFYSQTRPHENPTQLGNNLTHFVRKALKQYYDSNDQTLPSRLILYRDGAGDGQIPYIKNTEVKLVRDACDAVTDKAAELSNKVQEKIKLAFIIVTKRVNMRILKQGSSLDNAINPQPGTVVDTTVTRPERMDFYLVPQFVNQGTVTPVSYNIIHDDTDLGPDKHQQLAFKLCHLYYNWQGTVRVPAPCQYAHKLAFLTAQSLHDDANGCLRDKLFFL


Key:
Test in all cases: MST; one partner labelled with atto-488 NHS ester at a constant amount, unlabelled partner serially diluted 1:2; 30 mM HEPES pH 7.5, 100 mM K-Ac, 2 mM Mg-Ac, 14 mM BME, 0.01% NP-40; apparent Kd by the law of mass action
[1] = molecular target: DEPS-1 PBS motif peptide (C. elegans)
[2] = molecular target: N-terminal fragment of DEPS-1 (DEPS-1^frag1) (C. elegans) (UniProt Q9N303)
[3] = molecular target: MBP-tagged full-length DEPS-1 (C. elegans) (UniProt Q9N303)
[4] = molecular target: T1, MBP-tagged full-length PRG-1; settings: both partners purified

| Kd [1] [nM] | Kd [2] [nM] | Kd [3] [nM] | Kd [4] [nM] | Molecule |
| --- | --- | --- | --- | --- |
| 1900 | 151 | 349 | – | MBP-tagged PRG-1 PIWI domain (from UniProt P90786 1-824) (domain or fragment) |
| – | – | – | 855 ± 133 | MBP-tagged full-length DEPS-1 (natural protein, C. elegans, UniProt Q9N303 1-619, looked up, atto-488 NHS ester label, DEPS-1 (Defective P granules and Sterile-1), C. elegans P granule protein, full length; Cloned into pMAL-C5X; Labelled partner (10 nM) in the MST with MBP-PRG-1; also called MBP-DEPS-1; Defective P granules and Sterile-1; source: E. coli BL21 (DE3), purified (RNaseA-treated lysate, amylose resin, size-exclusion chromatography)) MSERQSKYFDYQGIVISSTGQDNQDSETDLVYLIQAHGKAAPKNIMYGVSKCAFVPTNLERNFDNIEEAKNLERRSKIPLKFGEVILWNESDCDHDKRIILHIKREKPIYEASSSRNGLILKVGGVIQPTSTTSFWTPLCTVTMPETEATRAEPDVWLYAWIRFETTMKSGLDPFNMTATFESFDSCDPSDQARVCEAPWNAGSPDSKFGVWRPDPKPADSDDEIDIEPREGWHLPEDKWAEVIKMQLGLYVGERLLICKELSQFDFIIPLQKPFSRGTDKTLIYPAVGEYFHFSAIWSMQHNGFLIYELQPVPLLRQHVTSVNGNLLTRVVPASIRGLFVDKEGTLGLIDDPHHLLSFFEFHPAGYEFLKAMAEVRAVRTSENKSVRYRIVRTSGMSIFENWLRDTQFVVGPVKGIRINEDTVICAKHPNVYFKIPNNLKEGIPIGGGVQFVGKRQAGVDSEIMITECSPCPAFTCKNYSVSGDTRLFQVYLKPNCDHEQLAESDSMGFVDFRELETPCRGKFLAWVRESITVNDCRRAATIMEVCSTAICPPLIAMSANSSRATSARTTPAGSSIGSRSSIQSRASAATSVSSNRFVGPSSRRTPSGTPQSSTSSRV |
